B1: anti-CR-1 antibody Clone 35 (antibody, V domains shown)
VH: QVQLQQSGPGLVKPSQTLSLTCAISGNSVSSNSAAWNWIRRSPSRGLEWLGRTYYRSKWYNDYAVSVKSRITIKPDTSKNQFSLQLNSVTPEDTAMYYCARGFCSGGRCYSFDYWGPGTLVTVSS
VL: QSVLTQPASVSGSPGQSITISCTGTDSDVGAYGSASWYRHSPGKAPQLIIYDVTNRPSGVSNRFYGSKSGNTASLTISGLQAEDEADYYCQAWDSGIHVVFGGGTQLTVL
notes: VH of phage clone 35 from the human scFv phage display library; human IgG heavy-chain constant region (CH1, CH2 and CH3) of the vector pHIgH5zeo; VL of phage clone 35 from the human scFv phage display library; human IgG light-chain constant region (CL) of the vector pHIgL5hyg; Whole human IgG format (VH-CH1-CH2-CH3 and VL-CL); also called anti-CR-1 Ab Clone 35; anti-CR-1 Clone 35 antibody
B2: anti-CR-1 antibody Clone 292 (antibody, V domains shown)
VH: QVQLQQSGPGLVKPSQTLPLTCAIYGDSVSSNSAAWNWIRQSPSRGLEWLGRTYYRSKWYNDYAVSVQSRITINPDTSKNQFSLQLNSVTPEDTAMYYCAKGKLSLEVITTRGWDWGQGTLVTVSS
VL: QSVLTQPRSVSGSPGQSVTISCTGTRADVGTYHYVSWYQRHPGKAPKLIIYDVSKRPSGVPDRFSGSKSGNTASLTVSGLQAEDEADYYCQSADSSGTYVIFGGGTQLTVL
notes: VH of phage clone 292; human IgG heavy chain constant region CH1-CH2-CH3 from the vector pHIgH5zeo; VL of phage clone 292; human IgG light chain constant region CL from the vector pHIgL5hyg; whole human IgG built from the VH and VL of the scFv phage clone; also called anti-CR-1 Ab; source: ExpiCHO-S, transfected, conditioned medium
B3: anti-CR-1 antibody Clone 212 (antibody, V domains shown)
VH: QVQLQQSGPGLVKPSQTLSLTCGISGDSVSSNSAAWNWIRQSPSRGLEWLGRTYYRSQWYNDYAVSVNSRITINPDTSKNQFSLQLNSVTPEDTAMYYCARTLRTPLADDYYYSGMDAWGQGTTVTVSS
VL: QSVLIQPASVSGSPGQSITISCTGTSSDVGSYNLASWYQHHPGKAPKLMIYEVNNRPSGVSNRFSGSKSGNTASLTISGLQAEDEADYYCQVWDGSGDPHAVFGGGTQLTVL
notes: VH of phage clone 212; human IgG heavy chain constant region CH1-CH2-CH3 from the vector pHIgH5zeo; VL of phage clone 212; human IgG light chain constant region CL from the vector pHIgL5hyg; whole human IgG built from the VH and VL of the scFv phage clone; also called anti-CR-1 Ab; source: ExpiCHO-S, transfected, conditioned medium
B4: anti-CR-1 antibody Clone 90 (antibody, V domains shown)
VH: QVQLQQSGPGLVKPSQTLSLTCAISGDSVSSNSAAWNWIRQSPSRGLEWLGRTYYRSKWYNDYAVSVKSRITIKPDTSKNQFSLQLYSVTPEDTAMYYCARDSYGMDVWGQGTTATVSS
VL: NFMLTQPPSASGTPGQRVSISCSGSSSNIGSSSVYWCRQLPGTAPKLLIYDVTNRPSGVPDRFSASKSGTSASLAISGLRSEDESDYYCVLYMGSGISVFGGGTKVTVL
notes: VH of phage clone 90; human IgG heavy chain constant region CH1-CH2-CH3 from the vector pHIgH5zeo; VL of phage clone 90; human IgG light chain constant region CL from the vector pHIgL5hyg; whole human IgG built from the VH and VL of the scFv phage clone; also called anti-CR-1 Ab; source: ExpiCHO-S, transfected, conditioned medium
B5: anti-CR-1 antibody Clone 224 (antibody, V domains shown)
VH: QVQLQQSGPGLVKPSQTLSLTCAISGDSVSSNSATWNWIRQSPSRGLEWLGRTYYKSKWYNEYAVSVKSRITINPDTSKNQFSLQLDSVTPEDTAMYYCATDRYYARDYWGRGTLVTVSS
VL: QSVLIQPRSVSGSPGQSVTISCTGTSGDVGYYDHVSWYQQHPGKAPKIMIYDVTQRPSGVPDRFSGSRSGNTASLTISGLQADDESDYYCVLYLGNGIWVFGGGTQLTVL
notes: VH of phage clone 224; human IgG heavy chain constant region CH1-CH2-CH3 from the vector pHIgH5zeo; VL of phage clone 224; human IgG light chain constant region CL from the vector pHIgL5hyg; whole human IgG built from the VH and VL of the scFv phage clone; also called anti-CR-1 Ab; source: ExpiCHO-S, transfected, conditioned medium
B6: anti-CR-1 antibody Clone 35 (antibody, V domains shown)
VH: B1 VH
VL: B1 VL
notes: VH of phage clone 35; human IgG heavy chain constant region CH1-CH2-CH3 from the vector pHIgH5zeo; VL of phage clone 35; human IgG light chain constant region CL from the vector pHIgL5hyg; whole human IgG built from the VH and VL of the scFv phage clone; also called anti-CR-1 Ab Clone 35; anti-CR-1 Ab; source: ExpiCHO-S, transfected, conditioned medium; also purified (HiTrap protein A)
B7: anti-CR-1 antibody Clone 331 (antibody, V domains shown)
VH: QVQLQQSGPGQVKPSQSLSLICAISGDSVSTSSAAWNWIRQSPSRGFEWLGRTFYRSGWFTDYAASVKSRITINPDTSKNQFSLQLNSVTPEDTAMYYCARIRSGYRFDYWGQGILVAVSS
VL: NFMLTQPPSASGTPGQRVTVSCSGSSSNIGSNFVFWYQHLPGKAPKLLIYRNHQRPSGVPDRFSGSKSGTSASLAISGLRSEDESDYYCQVWDDRNVVFGGGTQLTVL
notes: VH of phage clone 331; human IgG heavy chain constant region CH1-CH2-CH3 from the vector pHIgH5zeo; VL of phage clone 331; human IgG light chain constant region CL from the vector pHIgL5hyg; whole human IgG built from the VH and VL of the scFv phage clone; also called anti-CR-1 Ab; source: ExpiCHO-S, transfected, conditioned medium
B8: anti-CR-1 antibody Clone 242 (antibody, V domains shown)
VH: QVQLVESGGGLVQPGGSLRLSCAASGFTFSNKPMSWVRQAPGKGLEWLSAISGSGVYAYFADSAKGRFTISRDNSKNTPYLQMNSLRAEDTAMYYCARQHITMLPGWFDPWGQGTLVTVSS
VL: QSVLTQPPSASGSPGQSVTISCTGSSSDVGGYNYVSWYQQHPGKAPKLMIYEVSKRPSGVPDRFSGSKSGNTASLTVSGLQAEDEAEYHCATWDNSLSSWVFGRGTQLTVL
notes: VH of phage clone 242; human IgG heavy chain constant region CH1-CH2-CH3 from the vector pHIgH5zeo; VL of phage clone 242; human IgG light chain constant region CL from the vector pHIgL5hyg; whole human IgG built from the VH and VL of the scFv phage clone; also called anti-CR-1 Ab; source: ExpiCHO-S, transfected, conditioned medium
B9: anti-CR-1 antibody Clone 226 (antibody, V domains shown)
VH: QVQLQQSGPGLVKPSQTLSLTCAISGDSVSSNSAAWNWIRQSPSRGLEWLGRTYYRSKWYNDYAVSVKSRITINPDTSKNQFSLQLNSVTPEDTAVYYCTPTPTWWPVRWGQGTLVTVSS
VL: QSALTQPRSVSGSPGQSVTISCTGTSGDVGYYDHVSWYQQHPGKAPKLFIYDVTKRPSGVPDRFSASKSGNTASLTISRLQAEDEAEYHCLTWGNSAVFGGGTQLTVL
notes: VH of phage clone 226; human IgG heavy chain constant region CH1-CH2-CH3 from the vector pHIgH5zeo; VL of phage clone 226; human IgG light chain constant region CL from the vector pHIgL5hyg; whole human IgG built from the VH and VL of the scFv phage clone; also called anti-CR-1 Ab; source: ExpiCHO-S, transfected, conditioned medium

Each binder was assayed against Cripto-1 (CR-1) in CR-1 overexpressing human cancer cell lines and cancer tissues (Homo sapiens, UniProt P13385) (assay: cell-based or functional assay). Details: not given.
Chain of Cripto-1 (CR-1) in CR-1 overexpressing human cancer cell lines and cancer tissues (P13385 31-150): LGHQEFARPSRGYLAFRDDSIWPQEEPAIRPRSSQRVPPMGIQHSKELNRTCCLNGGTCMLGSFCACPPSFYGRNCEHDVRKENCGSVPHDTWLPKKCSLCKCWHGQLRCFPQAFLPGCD
With B1 the “growth inhibition of GEO cells overexpressing CR-1 (MTT, 72 h), antibody 2.1–136 µg/mL (14–900 nM); IC50” value was ~110 nM.

These binders were tested against T1, recombinant soluble human CR-1 protein (Homo sapiens, UniProt P13385) (assay: BLI; Octet RED96; rshCR-1 immobilised on Amine Reactive (AR2G) biosensor; anti-CR-1 Abs in ExpiCHO-S conditioned medium as analyte). Details: one partner purified.
T1 construct: Cripto-1 (CR-1), human, recombinant soluble form; also called rshCR-1; rhsCR-1
T1 sequence (P13385 31-150): as above
Work on B2 yielded a koff of 0.0207 s⁻¹. For B3, the koff was 0.0209 s⁻¹. B4 was tested, and the koff was 0.0196 s⁻¹. B5 showed a koff of 0.0191 s⁻¹. Binder B6 has a koff of 0.0186 s⁻¹. Work on B7 yielded a koff of 0.0181 s⁻¹. Binder B8 has a koff of 0.0187 s⁻¹. For B9, the koff was 0.0194 s⁻¹.

What follows are binders tested against T2, recombinant soluble human CR-1 protein (rshCR-1) (Homo sapiens, UniProt P13385) (assay: BLI; Octet; rshCR-1 (2 ng/mL) fixed to amine reactive biosensor; purified antibody 25-200 nM; global fitting, steady state analysis section). Details: both partners purified.
T2 construct: Cripto-1 (CR-1), human, recombinant soluble form; also called rhsCR-1; recombinant Cripto-1
T2 sequence (P13385 31-150): as above
In the case of B1, the koff is reported as 0.0114 s⁻¹.

Reference: article PMC7915030, “A Novel Artificially Humanized Anti-Cripto-1 Antibody Suppressing Cancer Cell Growth” (International Journal of Molecular Sciences, 2021)
